Reference: patent US20230265215A1 (OMEROS, published 2023)

Assays:
[1] = target: T1, Cyno MASP-2 CCP1/CCP2/SP (cynomolgus monkey, UniProt O00187 287-686 (human entry), limits assumed); test: BLI (Octet RED96), OMS858 on anti-human Fc capture sensors, MASP-2 protein 1.6-50 nM
T1 construct: also called cynomolgus monkey MASP-2 CCP1/CCP2/SP
Protocol: (§1) All measurements were conducted with the Octet RED96 system (ForteBio) using PBS containing 1% BSA and 0.02% Tween 20 as assay buffer. […] After one step of baseline, the captured sensors were submerged into wells containing different concentrations of the target proteins (1.6-50 nM) for the association step (120 sec), and then transferred to empty wells for the dissociation step (200 sec). In all experiments, the captured sensor was also dipped in a well containing no analyte to allow single reference subtraction to compensate for the natural dissociation of the captured antibody. The recorded binding sensorgrams were analyzed with Octet data analysis software (ForteBio) to determine binding affinity (KD).

[2] = target: Mouse MASP-2 CCP1/CCP2/SP (mouse, UniProt Q91WP0 287-685, limits assumed); test: as above
Chain of Mouse MASP-2 CCP1/CCP2/SP (Q91WP0 other isoform, or with tags, fused parts or gaps limits assumed): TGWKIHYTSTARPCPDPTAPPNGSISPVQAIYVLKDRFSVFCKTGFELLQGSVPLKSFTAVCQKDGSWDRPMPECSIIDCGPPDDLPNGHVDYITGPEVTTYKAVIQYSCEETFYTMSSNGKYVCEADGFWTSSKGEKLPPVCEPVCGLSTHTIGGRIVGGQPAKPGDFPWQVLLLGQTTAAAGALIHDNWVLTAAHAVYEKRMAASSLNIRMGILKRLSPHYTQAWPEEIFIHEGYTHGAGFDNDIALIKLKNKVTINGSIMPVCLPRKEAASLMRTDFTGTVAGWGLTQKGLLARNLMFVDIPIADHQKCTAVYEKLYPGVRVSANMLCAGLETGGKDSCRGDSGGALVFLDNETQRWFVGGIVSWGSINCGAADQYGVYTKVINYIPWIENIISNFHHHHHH
Protocol: as §1

[3] = target: T2, Human MASP-2 CCP1/CCP2/SP H508Q 'dog-like' (human, UniProt O00187 287-686, limits assumed); test: BLI (Octet RED96), H508Q against wild-type human MASP-2 CCP1/CCP2/SP
T2 construct: also called dog-like variant of human MASP-2; MASP-2 H508Q
T2 sequence (O00187 other isoform, or with tags, fused parts or gaps H508Q H508Q limits assumed): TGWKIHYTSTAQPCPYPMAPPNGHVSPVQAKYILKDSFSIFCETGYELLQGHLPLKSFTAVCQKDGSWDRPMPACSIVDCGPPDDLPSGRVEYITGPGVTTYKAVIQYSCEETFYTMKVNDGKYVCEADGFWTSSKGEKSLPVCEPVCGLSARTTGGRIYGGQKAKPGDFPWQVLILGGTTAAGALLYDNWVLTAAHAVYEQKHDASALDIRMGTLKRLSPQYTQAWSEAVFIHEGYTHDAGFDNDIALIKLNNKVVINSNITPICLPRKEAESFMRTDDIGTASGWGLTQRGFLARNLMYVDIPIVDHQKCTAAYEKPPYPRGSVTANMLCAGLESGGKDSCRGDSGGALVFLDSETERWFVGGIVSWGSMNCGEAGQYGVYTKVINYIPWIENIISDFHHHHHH
Protocol: as §1

[4] = target: T3, MASP-3 (human, UniProt P48740-2 20-728, limits assumed); test: solid phase ELISA, immobilized protease, mean apparent KD of two lots
T3 construct: Species read from 'Recombinant human MASP-2 or C1r, C1s, CFD, MASP-1 and MASP-3'
T3 sequence (looked up): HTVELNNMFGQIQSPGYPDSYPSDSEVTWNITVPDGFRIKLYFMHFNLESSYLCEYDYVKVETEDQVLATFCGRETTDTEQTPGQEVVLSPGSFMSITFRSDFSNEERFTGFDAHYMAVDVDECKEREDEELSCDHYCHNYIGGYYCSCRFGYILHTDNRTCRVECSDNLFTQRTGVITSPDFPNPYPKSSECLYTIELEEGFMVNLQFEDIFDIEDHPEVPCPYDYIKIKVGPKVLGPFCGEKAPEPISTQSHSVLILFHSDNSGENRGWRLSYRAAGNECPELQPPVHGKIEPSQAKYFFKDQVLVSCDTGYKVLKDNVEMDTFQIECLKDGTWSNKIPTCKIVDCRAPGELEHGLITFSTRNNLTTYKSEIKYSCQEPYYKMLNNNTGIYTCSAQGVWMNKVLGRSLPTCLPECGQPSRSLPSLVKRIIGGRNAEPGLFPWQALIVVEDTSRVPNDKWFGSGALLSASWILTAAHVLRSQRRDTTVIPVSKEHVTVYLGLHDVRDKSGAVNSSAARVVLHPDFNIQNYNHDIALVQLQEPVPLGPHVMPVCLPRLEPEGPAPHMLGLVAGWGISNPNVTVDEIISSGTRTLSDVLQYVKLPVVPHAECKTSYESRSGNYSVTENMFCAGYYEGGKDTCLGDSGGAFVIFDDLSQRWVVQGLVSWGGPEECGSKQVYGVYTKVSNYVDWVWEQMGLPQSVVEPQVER
Excerpt: (§2) The apparent dissociation constant (KD) was estimated by nonlinear regression using a 4-parameter logistic model.
(§3) Fold selectivity calculated as KD(related serine protease)/mean KD(MASP-2).

[5] = target: Recombinant human MASP-2 (specificity ELISA, Example 14) (human, UniProt O00187 16-686, limits assumed); test: as above
Chain of Recombinant human MASP-2 (specificity ELISA, Example 14) (O00187 16-686 limits assumed): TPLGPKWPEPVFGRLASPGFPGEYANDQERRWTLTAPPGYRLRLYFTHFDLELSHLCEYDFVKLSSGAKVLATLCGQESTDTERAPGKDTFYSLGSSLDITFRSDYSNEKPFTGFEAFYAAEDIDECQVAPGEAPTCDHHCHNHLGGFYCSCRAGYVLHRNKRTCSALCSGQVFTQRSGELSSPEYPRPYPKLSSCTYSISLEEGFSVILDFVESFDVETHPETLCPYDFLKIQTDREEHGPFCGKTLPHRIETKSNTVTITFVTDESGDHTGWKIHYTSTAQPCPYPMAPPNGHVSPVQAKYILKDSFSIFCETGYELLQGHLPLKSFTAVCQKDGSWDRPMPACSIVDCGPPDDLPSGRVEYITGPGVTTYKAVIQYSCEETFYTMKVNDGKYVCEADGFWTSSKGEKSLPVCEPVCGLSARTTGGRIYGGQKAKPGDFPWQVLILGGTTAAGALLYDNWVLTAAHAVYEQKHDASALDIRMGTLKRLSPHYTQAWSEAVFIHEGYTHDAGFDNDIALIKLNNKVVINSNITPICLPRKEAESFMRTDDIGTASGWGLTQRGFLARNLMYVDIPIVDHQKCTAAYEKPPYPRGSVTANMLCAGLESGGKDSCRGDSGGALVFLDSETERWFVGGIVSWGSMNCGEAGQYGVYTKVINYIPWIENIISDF
Excerpt: as §2, §3

[6] = target: T4, C1r (human, UniProt P00736 18-705, limits assumed); test: as above
T4 construct: Species read from 'Recombinant human MASP-2 or C1r, C1s, CFD, MASP-1 and MASP-3'
T4 sequence (looked up): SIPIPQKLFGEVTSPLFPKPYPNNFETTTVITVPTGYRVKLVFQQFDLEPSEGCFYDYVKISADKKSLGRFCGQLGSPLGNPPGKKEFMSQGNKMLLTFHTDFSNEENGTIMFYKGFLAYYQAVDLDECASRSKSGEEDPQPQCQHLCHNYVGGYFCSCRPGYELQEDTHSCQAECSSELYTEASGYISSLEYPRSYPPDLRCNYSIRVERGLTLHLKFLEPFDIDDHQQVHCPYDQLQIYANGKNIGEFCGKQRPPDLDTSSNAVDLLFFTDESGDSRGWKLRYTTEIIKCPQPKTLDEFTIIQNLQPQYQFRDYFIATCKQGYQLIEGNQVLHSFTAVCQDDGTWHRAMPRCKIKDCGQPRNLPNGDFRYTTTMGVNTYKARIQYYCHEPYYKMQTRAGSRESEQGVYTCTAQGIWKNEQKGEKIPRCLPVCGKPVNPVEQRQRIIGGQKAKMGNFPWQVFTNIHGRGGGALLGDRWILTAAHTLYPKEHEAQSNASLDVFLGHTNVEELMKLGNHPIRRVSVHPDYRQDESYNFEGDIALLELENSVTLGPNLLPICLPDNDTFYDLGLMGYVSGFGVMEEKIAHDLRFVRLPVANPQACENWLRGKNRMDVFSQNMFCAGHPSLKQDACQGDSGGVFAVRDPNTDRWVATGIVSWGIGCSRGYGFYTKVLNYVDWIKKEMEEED
Excerpt: as §2, §3

T1 sequence (O00187 other isoform, or with tags, fused parts or gaps limits assumed): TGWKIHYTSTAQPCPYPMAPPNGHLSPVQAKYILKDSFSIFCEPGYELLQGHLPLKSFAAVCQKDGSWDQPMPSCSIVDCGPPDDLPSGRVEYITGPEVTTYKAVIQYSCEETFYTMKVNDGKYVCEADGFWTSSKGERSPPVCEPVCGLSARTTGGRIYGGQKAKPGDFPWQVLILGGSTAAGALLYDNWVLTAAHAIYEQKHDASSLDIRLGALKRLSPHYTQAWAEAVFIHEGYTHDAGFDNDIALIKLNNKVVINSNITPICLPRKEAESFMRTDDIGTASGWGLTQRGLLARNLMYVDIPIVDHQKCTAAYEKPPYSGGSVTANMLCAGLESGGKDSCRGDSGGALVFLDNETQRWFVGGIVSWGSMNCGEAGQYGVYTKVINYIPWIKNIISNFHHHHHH

Kd [1]: 8.23 nM | Kd [2]: 32.9 nM | fold reduction of binding affinity against wild-type human MASP-2 CCP1/CCP2/SP [3]: ~450 fold | Kd [4]: > 100 µg/mL | Kd [5]: 0.047 µg/mL | Kd [6]: > 100 µg/mL
B1: mAb OMS858 (humanized anti-MASP-2 antibody) (antibody, V domains shown)
VH: QVQLVQSGAEVKKPGASVKVSCKASGYTFTNHHMHWLRQAPGQGLEWIGDIDASDSETHYIEKFKDRATLTIDKSSSTAYMELSSLRSEDTAVYYCARGDITTTLRYFDVWGQGTLVTVSS
VL: DIQLTQSPSSLSASVGDRVTITCSASSSVRYMYWYQQKPGKAPKLLIYDTSNLASGVPSRFSGSGSGTDNTLTISSLQPEDFATYYCQQWSSYPLTFGQGTKVEIKR
notes: also called antibody OMS858; biotinylated OMS858
